Source: publication PMC5778602 (Nucleic Acids Research, 2017)
Values belong to the binder of their own block, whether it stands above or below them.

B1: full length GST-CstF-50 fusion protein (natural protein, human, UniProt Q05048 1-431, looked up)
chain: MYRTKVGLKDRQQLYKLIISQLLYDGYISIANGLINEIKPQSVCAPSEQLLHLIKLGMENDDTAVQYAIGRSDTVAPGTGIDLEFDADVQTMSPEASEYETCYVTSHKGPCRVATYSRDGQLIATGSADASIKILDTERMLAKSAMPIEVMMNETAQQNMENHPVIRTLYDHVDEVTCLAFHPTEQILASGSRDYTLKLFDYSKPSAKRAFKYIQEAEMLRSISFHPSGDFILVGTQHPTLRLYDINTFQCFVSCNPQDQHTDAICSVNYNSSANMYVTGSKDGCIKLWDGVSNRCITTFEKAHDGAEVCSAIFSKNSKYILSSGKDSVAKLWEISTGRTLVRYTGAGLSGRQVHRTQAVFNHTEDYVLLPDERTISLCCWDSRTAERRNLLSLGHNNIVRCIVHSPTNPGFMTCSDDFRARFWYRRSTTD
B4: CstF-77ΔN (domain or fragment, human, UniProt Q12996 241-717, looked up)
chain: NTPQEAQQVDMWKKYIQWEKSNPLRTEDQTLITKRVMFAYEQCLLVLGHHPDIWYEAAQYLEQSSKLLAEKGDMNNAKLFSDEAANIYERAISTLLKKNMLLYFAYADYEESRMKYEKVHSIYNRLLAIEDIDPTLVYIQYMKFARRAEGIKSGRMIFKKAREDTRTRHHVYVTAALMEYYCSKDKSVAFKIFELGLKKYGDIPEYVLAYIDYLSHLNEDNNTRVLFERVLTSGSLPPEKSGEIWARFLAFESNIGDLASILKVEKRRFTAFKEEYEGKETALLVDRYKFMDLYPCSASELKALGYKDVSRAKLAAIIPDPVVAPSIVPVLKDEVDRKPEYPKPDTQQMIPFQPRHLAPPGLHPVPGGVFPVPPAAVVLMKLLPPPICFQGPFVQVDELMEIFRRCKIPNTVEEAVRIITGGAPELAVEGNGPVESNAVLTKAVKRPNEDSDEDEEKGAVVPPVHDIYRARQQKRIR

Assays:
CstF-77ΔN [1] = biological target: B4; test: pull-down
CstF-77ΔN [2] = biological target: B4; test: SEC
[3] = biological target: B1; test: pull-down
SEC-MALS = biological target: the molecule itself; test: SEC-MALS
WD40 domain of CstF-50 = biological target: T1, WD40 domain of CstF-50 (human, UniProt Q05048 80-431); test: ITC
T1 sequence: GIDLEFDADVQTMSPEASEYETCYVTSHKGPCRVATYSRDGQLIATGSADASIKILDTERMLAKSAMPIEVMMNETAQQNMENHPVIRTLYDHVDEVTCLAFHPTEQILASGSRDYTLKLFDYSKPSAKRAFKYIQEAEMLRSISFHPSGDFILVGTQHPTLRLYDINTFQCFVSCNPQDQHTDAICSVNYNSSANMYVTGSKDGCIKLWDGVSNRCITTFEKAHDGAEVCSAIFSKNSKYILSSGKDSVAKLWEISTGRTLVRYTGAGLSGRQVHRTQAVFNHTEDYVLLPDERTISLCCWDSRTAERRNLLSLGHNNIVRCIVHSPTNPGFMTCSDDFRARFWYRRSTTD

binding result [3]: binds
B3: CstF-77 (residues 241–600) (domain or fragment, human, UniProt Q12996 241-600, looked up)
chain: NTPQEAQQVDMWKKYIQWEKSNPLRTEDQTLITKRVMFAYEQCLLVLGHHPDIWYEAAQYLEQSSKLLAEKGDMNNAKLFSDEAANIYERAISTLLKKNMLLYFAYADYEESRMKYEKVHSIYNRLLAIEDIDPTLVYIQYMKFARRAEGIKSGRMIFKKAREDTRTRHHVYVTAALMEYYCSKDKSVAFKIFELGLKKYGDIPEYVLAYIDYLSHLNEDNNTRVLFERVLTSGSLPPEKSGEIWARFLAFESNIGDLASILKVEKRRFTAFKEEYEGKETALLVDRYKFMDLYPCSASELKALGYKDVSRAKLAAIIPDPVVAPSIVPVLKDEVDRKPEYPKPDTQQMIPFQPRHLAPP

binding result [3]: binds
B5: CstF-77 (residues 241–610) (domain or fragment, human, UniProt Q12996 241-610, looked up)
chain: NTPQEAQQVDMWKKYIQWEKSNPLRTEDQTLITKRVMFAYEQCLLVLGHHPDIWYEAAQYLEQSSKLLAEKGDMNNAKLFSDEAANIYERAISTLLKKNMLLYFAYADYEESRMKYEKVHSIYNRLLAIEDIDPTLVYIQYMKFARRAEGIKSGRMIFKKAREDTRTRHHVYVTAALMEYYCSKDKSVAFKIFELGLKKYGDIPEYVLAYIDYLSHLNEDNNTRVLFERVLTSGSLPPEKSGEIWARFLAFESNIGDLASILKVEKRRFTAFKEEYEGKETALLVDRYKFMDLYPCSASELKALGYKDVSRAKLAAIIPDPVVAPSIVPVLKDEVDRKPEYPKPDTQQMIPFQPRHLAPPGLHPVPGGVF

Second part, the binder before the results:

Binder: B1
binding result (CstF-77ΔN [1]): binds

B2: CstF-50 (full length, affinity tag removed) (natural protein, human, UniProt Q05048 1-431, looked up)
chain: MYRTKVGLKDRQQLYKLIISQLLYDGYISIANGLINEIKPQSVCAPSEQLLHLIKLGMENDDTAVQYAIGRSDTVAPGTGIDLEFDADVQTMSPEASEYETCYVTSHKGPCRVATYSRDGQLIATGSADASIKILDTERMLAKSAMPIEVMMNETAQQNMENHPVIRTLYDHVDEVTCLAFHPTEQILASGSRDYTLKLFDYSKPSAKRAFKYIQEAEMLRSISFHPSGDFILVGTQHPTLRLYDINTFQCFVSCNPQDQHTDAICSVNYNSSANMYVTGSKDGCIKLWDGVSNRCITTFEKAHDGAEVCSAIFSKNSKYILSSGKDSVAKLWEISTGRTLVRYTGAGLSGRQVHRTQAVFNHTEDYVLLPDERTISLCCWDSRTAERRNLLSLGHNNIVRCIVHSPTNPGFMTCSDDFRARFWYRRSTTD
binding result (CstF-77ΔN [2]): binds

Binder: B4
stoichiometry N (SEC-MALS): 2

Binder: YPKPDTQQMIPFQPRHLAPP (peptide, UniProt Q12996 581-600, looked up) [CstF-77 peptide (residues 581–600)]
Kd (WD40 domain of CstF-50): ~200 nM
stoichiometry N (WD40 domain of CstF-50): 1
